This is an account of results in publication PMC4274662, “A novel cytosolic NADH:quinone oxidoreductase from Methanothermobacter marburgensis” (Bioscience Reports, 2014).

Common to all, as to format: biochemical, Methanothermobacter marburgensis
Substrate in data set [1]: NC(=O)C1=CN([C@@H]2O[C@H](COP(=O)(O)OP(=O)(O)OC[C@H]3O[C@@H](n4cnc5c(N)ncnc54)[C@H](O)[C@@H]3O)[C@@H](O)[C@H]2O)C=CC1
The data set is described as follows: purified protein. Conditions: 1 mM coenzyme Q1 as acceptor, 50 mM Mops pH 7.4, 30°C.

Substrate in data set [2]: NC(=O)C1=CN([C@@H]2O[C@H](COP(=O)(O)OP(=O)(O)OC[C@H]3O[C@@H](n4cnc5c(N)ncnc54)[C@H](OP(=O)(O)O)[C@@H]3O)[C@@H](O)[C@H]2O)C=CC1
Kind of data set: purified protein. Conditions: 1 mM coenzyme Q1 as acceptor, 50 mM Mops pH 7.4, 30°C.

Substrate in data set [3]: CN(C)c1ccc(N=Nc2ccccc2C(=O)O)cc1
Kind of data set: reduction with electron donor, absorbance. Conditions: electron acceptor, donor not stated (presumably NADH), varied substrate not stated, general method varies the donor, 50 mM Mops pH 7.4, 30°C.

B1: MmNQO (Methanothermobacter marburgensis str. Marburg) (protein)
chain: MHVYILFAHPSRKSFSREVLEAFTEGLSEAGHTYEVGDLYRMNFRSELSQEEYLREISQEAGSPLPEDVMEEHERIGRADALAFIYPLWWSDCPAKLKGWFDRVWTYGYAYFYEDGERGTRIDIEKAVVLCSAGHTEEDLEGTGIAESMRSVMLGDRLLGVGVKNVTMEILGGMVPGDDSCREINLMRARRAGRNL
notes: full length 196 residues, N-terminal MAS added, non-cleavable C-terminal His6 tag (EHHHHHH) kept; pET21, E. coli BL21(DE3); 23538 Da; homodimer with FMN
In the case of B1, in “purified protein [1]”, the Km was 96.8 µM, the kcat came to 0.26 s⁻¹ and the kcat/Km amounted to 2680 M⁻¹ s⁻¹. Also, in “purified protein [2]”, the Km was found to be 111.6 µM, the kcat turned out to be 0.243 s⁻¹ and the catalytic efficiency (kcat/Km) turned out to be 2170 M⁻¹ s⁻¹. In addition, in data set [3], the Km was 683 µM and the kcat was determined as 0.106 s⁻¹.

In general, Km refers to the concentration of substrate that gives half-maximal velocity. As a reminder, the kcat is the maximal rate divided by the concentration of active sites. In general, kcat/Km refers to the second-order rate constant that governs catalysis at low substrate concentration.
